Experimental data: PMC10544015 (Journal of Medicinal Chemistry, 2023)
Entries after “also recorded” stand apart in the source; their conditions may differ. Where two headings read alike, the source gives them in different places. Bridge positions count the residues as written; N and C are the ends. Square brackets hold non-standard residues; d marks the D form. Triazole bridges read from a SMILES are 1,4-linked. Peptide text beside a SMILES is read from it. Lys(N3) = [N-]=[N+]=NCCCC[C@H](N)C(=O)O; Orn(N3) = [N-]=[N+]=NCCC[C@H](N)C(=O)O; Hpra = C#CCC[C@H](N)C(=O)O; Pra = C#CC[C@H](N)C(=O)O; Ahx = NCCCCCC(=O)O

Assays:
circular dichroism = conditions: PBS (10 mM phosphate, 137 mM NaCl, 2.7 mM KCl); pH 7.4; rt °C; 100 uM
B16-BL6 cells = assay: LDH cytotoxicity assay in B16-BL6 cells; type: cell-based, mouse; conditions: peptides 100 to 6.25 µM, Pbn 2.5 mM, HOS solution
Panx1 channels [1] = target: T1, Panx1 channels (Homo sapiens, UniProt Q96RD7); assay: HOS-induced ATP release assay in EA.hy926 endothelial cells; type: cell-based
T1 construct: host or cells: EA.hy926 human endothelial cells
T1 sequence (Q96RD7 whole entry): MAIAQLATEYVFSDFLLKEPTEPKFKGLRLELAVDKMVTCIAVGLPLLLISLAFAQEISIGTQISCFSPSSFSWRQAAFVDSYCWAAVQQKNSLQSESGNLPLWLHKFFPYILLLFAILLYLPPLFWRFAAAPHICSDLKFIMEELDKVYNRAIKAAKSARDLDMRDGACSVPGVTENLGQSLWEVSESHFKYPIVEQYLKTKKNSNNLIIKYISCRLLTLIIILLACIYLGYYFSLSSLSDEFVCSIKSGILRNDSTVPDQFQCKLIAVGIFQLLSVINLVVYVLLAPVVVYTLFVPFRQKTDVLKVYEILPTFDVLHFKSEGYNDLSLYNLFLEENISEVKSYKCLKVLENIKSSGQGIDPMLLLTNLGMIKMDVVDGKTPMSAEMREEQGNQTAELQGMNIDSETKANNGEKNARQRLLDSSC
Experimental: Similar to B16-BL6 cells, a 2–3-fold enhancement of ATP release from EA.hy926 cells was observed upon HOS stimulation (Figure 7E). However, the absolute levels of ATP release were lower in these endothelial cells (around 300 vs 500–600 nM in B16-BL6 cells). As expected, Pbn reduced HOS-induced ATP release from EA.hy926 cells, albeit by a lower fraction than the one observed in B16-BL6 cells (Figure 7E vs7A). The reason for this different efficacy of Pbn is unknown but may be due to its nonspecific action on other ATP release channels or transporters,[68] of which the expression naturally varies among different cell types. […] The water-soluble double-stapled ^10Panx1 peptidomimetic SBL-PX1-206 reduced HOS-induced ATP release from EA.hy926 cells by about 25% at 12.5 μM. […] Stapled and double-stapled ^10Panx1 analogues were also not cytotoxic when tested at 100 and 12.5 μM in EA.hy926 cells (Supporting Information, Figure S8).
Triplicates were performed for each independent experiment.

Panx1 channels [2] = target: Panx1 channels (Mus musculus, UniProt Q9JIP4); assay: HOS-induced ATP release assay in B16-BL6 cells; conditions: B16-BL6, read-out: % ATP release inhibition at 100µM (in B16-BL6 cells)
Chain of Panx1 channels (Mus musculus, UniProt Q9JIP4) (Q9JIP4 whole entry): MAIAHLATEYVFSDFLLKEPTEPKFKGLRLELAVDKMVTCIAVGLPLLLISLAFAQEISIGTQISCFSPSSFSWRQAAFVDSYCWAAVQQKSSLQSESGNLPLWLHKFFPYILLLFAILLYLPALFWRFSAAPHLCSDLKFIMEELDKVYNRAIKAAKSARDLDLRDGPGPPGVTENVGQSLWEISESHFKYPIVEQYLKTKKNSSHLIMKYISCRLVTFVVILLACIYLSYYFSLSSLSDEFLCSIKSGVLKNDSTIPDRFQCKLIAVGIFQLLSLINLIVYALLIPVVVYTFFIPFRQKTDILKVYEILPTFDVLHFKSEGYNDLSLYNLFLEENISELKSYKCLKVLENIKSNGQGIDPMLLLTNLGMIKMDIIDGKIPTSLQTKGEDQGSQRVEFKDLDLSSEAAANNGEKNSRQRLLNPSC

human plasma = conditions: 37 °C

**Q.** With CC(=O)N[C@H]1CCc2cn(nn2)CCCC[C@@H](C(=O)N[C@@H](C)C(=O)N[C@@H](Cc2ccccc2)C(=O)N[C@H](C(=O)N[C@@H](CC(=O)O)C(=O)N[C@@H](CO)C(=O)N[C@@H](Cc2ccc(O)cc2)C(N)=O)C(C)C)NC(=O)[C@H](CCC(N)=O)NC(=O)[C@H](CCCNC(=N)N)NC(=O)[C@H](Cc2c[nH]c3ccccc23)NC1=O (Ac-[Hpra]WRQ[Lys(N3)]AFVDSY-NH2; triazole 1-5) as the molecule, how does the helicity (circular dichroism) read?
**A.** The helicity was 26%.

**Q.** Which helicity (circular dichroism) does the source give for CC(=O)N[C@@H](CO)C(=O)N[C@@H](Cc1c[nH]c2ccccc12)C(=O)N[C@@H](CCCNC(=N)N)C(=O)N[C@@H](CCC(N)=O)C(=O)N[C@@H](C)C(=O)N[C@@H](C)C(=O)N[C@@H](Cc1ccccc1)C(=O)N[C@H]1Cc2cn(nn2)CCC[C@@H](C(N)=O)NC(=O)[C@H](Cc2ccc(O)cc2)NC(=O)[C@H](CO)NC(=O)[C@H](CC(=O)O)NC1=O (Ac-SWRQAAF[Pra]DSY[Orn(N3)]-NH2; triazole 8-12) here?
**A.** Its helicity is 12%.

**Q.** For CC(=O)N[C@@H](CO)C(=O)N[C@@H](Cc1c[nH]c2ccccc12)C(=O)N[C@@H](CCCNC(=N)N)C(=O)N[C@@H](CCC(N)=O)C(=O)N[C@@H](C)C(=O)N[C@H]1CCc2cn(nn2)CCCC[C@@H](C(=O)N[C@@H](Cc2ccc(O)cc2)C(N)=O)NC(=O)[C@H](CC(=O)O)NC(=O)[C@H](C(C)C)NC(=O)[C@H](Cc2ccccc2)NC1=O (Ac-SWRQA[Hpra]FVD[Lys(N3)]Y-NH2; triazole 6-10), which helicity (circular dichroism) is on record?
**A.** The helicity was 28%.

**Q.** For CC(=O)N[C@@H](CO)C(=O)N[C@@H](Cc1c[nH]c2ccccc12)C(=O)N[C@@H](CCCNC(=N)N)C(=O)N[C@@H](CCC(N)=O)C(=O)N[C@@H](C)C(=O)N[C@H]1CCCCn2cc(nn2)C[C@@H](C(=O)N[C@@H](Cc2ccc(O)cc2)C(N)=O)NC(=O)[C@H](CC(=O)O)NC(=O)[C@H](C(C)C)NC(=O)[C@H](Cc2ccccc2)NC1=O (Ac-SWRQA[Lys(N3)]FVD[Pra]Y-NH2; triazole 6-10), which helicity (circular dichroism) is on record?
**A.** Its helicity is 32%.

**Q.** With CC(=O)N[C@@H](CO)C(=O)N[C@@H](Cc1c[nH]c2ccccc12)C(=O)N[C@@H](CCCNC(=N)N)C(=O)N[C@@H](CCC(N)=O)C(=O)N[C@@H](C)C(=O)N[C@@H](C)C(=O)N[C@H]1Cc2cn(nn2)CCCC[C@@H](C(N)=O)NC(=O)[C@H](CO)NC(=O)[C@H](CC(=O)O)NC(=O)[C@H](C(C)C)NC1=O (Ac-SWRQAA[Pra]VDS[Lys(N3)]-NH2; triazole 7-11) as the molecule, how does the helicity (circular dichroism) read?
**A.** The helicity was 37%.

**Q.** For CC(=O)N[C@H]1Cc2cn(nn2)CCC[C@@H](C(=O)N[C@@H](C)C(=O)N[C@@H](Cc2ccccc2)C(=O)N[C@H](C(=O)N[C@@H](CC(=O)O)C(=O)N[C@@H](CO)C(=O)N[C@@H](Cc2ccc(O)cc2)C(N)=O)C(C)C)NC(=O)[C@H](CCC(N)=O)NC(=O)[C@H](CCCNC(=N)N)NC(=O)[C@H](Cc2c[nH]c3ccccc23)NC1=O (Ac-[Pra]WRQ[Orn(N3)]AFVDSY-NH2; triazole 1-5), which helicity (circular dichroism) is on record?
**A.** The helicity was 14%.

**Q.** With CC(C)[C@H](NC(=O)[C@H](Cc1ccccc1)NC(=O)[C@H](C)NC(=O)[C@H](C)NC(=O)[C@H](CCC(N)=O)NC(=O)[C@H](CCCNC(=N)N)NC(=O)[C@@H](N)Cc1c[nH]c2ccccc12)C(=O)N[C@@H](CC(=O)O)C(=O)N[C@@H](CO)C(=O)N[C@@H](Cc1ccc(O)cc1)C(=O)O [^10Panx1, WRQAAFVDSY] (H-WRQAAFVDSY-OH) as the molecule, how does the “cytotoxicity (extracellular LDH)” value (B16-BL6 cells) read?
**A.** The value was “no cytotoxicity”.

**Q.** What about the inhibition at 100 µM (Panx1 channels [1]; EA.hy 926, read-out: % ATP release inhibition at 100µM (in EA.hy926 cells)) of the same molecule?
**A.** Its inhibition at 100 µM is 24%.

**Q.** And the inhibition at 100 µM (Panx1 channels [2])?
**A.** Its inhibition at 100 µM is 19%.

**Q.** For CC(C)[C@H](NC(=O)[C@H](Cc1ccccc1)NC(=O)[C@H](C)NC(=O)[C@H](C)NC(=O)[C@H](CCC(N)=O)NC(=O)[C@H](CCCNC(=N)N)NC(=O)[C@H](Cc1c[nH]c2ccccc12)NC(=O)CCCCCNC(=O)[C@@H](N)CCCCN)C(=O)N[C@@H](CC(=O)O)C(=O)N[C@@H](CO)C(=O)N[C@@H](Cc1ccc(O)cc1)C(=O)O [SBL-PX1-214] (H-K[Ahx]WRQAAFVDSY-OH), which inhibition at 100 µM (Panx1 channels [1]; EA.hy 926, 100 µM, 30 min HOS stimulation, read-out: % ATP release inhibition at 100µM (in EA.hy926 cells)) is on record?
**A.** The inhibition at 100 µM was 30%.

**Q.** With Ac-*WRQ*AFVDSY-NH2 as the molecule, how does the cleaved bond (human plasma; up to 24 h) read?
**A.** Its cleaved bond is “A-F, major; also recorded: D-S, major”.

**Q.** And the not cleaved (human plasma; up to 24 h)?
**A.** The not cleaved was “amide bonds within the macrocycle remained intact for several hours”.

**Q.** For CC(=O)N[C@@H]1Cc2cn(nn2)CCCC[C@@H](C(=O)N[C@@H](C)C(=O)N[C@@H](Cc2ccccc2)C(=O)N[C@H](C(=O)N[C@@H](CC(=O)O)C(=O)N[C@@H](CO)C(=O)N[C@@H](Cc2ccc(O)cc2)C(N)=O)C(C)C)NC(=O)[C@H](CCC(N)=O)NC(=O)[C@H](CCCNC(=N)N)NC(=O)[C@H](Cc2c[nH]c3ccccc23)NC1=O, which helicity (circular dichroism) is on record?
**A.** Its helicity is 18%.

**Q.** With CC(=O)N[C@H]1CCCCn2cc(nn2)C[C@@H](C(=O)N[C@@H](C)C(=O)N[C@@H](Cc2ccccc2)C(=O)N[C@H](C(=O)N[C@@H](CC(=O)O)C(=O)N[C@@H](CO)C(=O)N[C@@H](Cc2ccc(O)cc2)C(N)=O)C(C)C)NC(=O)[C@H](CCC(N)=O)NC(=O)[C@H](CCCNC(=N)N)NC(=O)[C@H](Cc2c[nH]c3ccccc23)NC1=O (Ac-[Lys(N3)]WRQ[Pra]AFVDSY-NH2; triazole 1-5) as the molecule, how does the helicity (circular dichroism) read?
**A.** Its helicity is 20%.

**Q.** For CC(=O)N[C@@H](CO)C(=O)N[C@@H](Cc1c[nH]c2ccccc12)C(=O)N[C@@H](CCCNC(=N)N)C(=O)N[C@@H](CCC(N)=O)C(=O)N[C@@H](C)C(=O)N[C@@H](C)C(=O)N[C@@H](Cc1ccccc1)C(=O)N[C@H]1Cc2cn(nn2)CCCC[C@@H](C(N)=O)NC(=O)[C@H](Cc2ccc(O)cc2)NC(=O)[C@H](CO)NC(=O)[C@H](CC(=O)O)NC1=O (Ac-SWRQAAF[Pra]DSY[Lys(N3)]-NH2; triazole 8-12), which helicity (circular dichroism) is on record?
**A.** Its helicity is 30%.

**Q.** Which cleaved bond (human plasma; up to 24 h) does the source give for “R-*WRQ**FVD*Y-NH2 (m = 1; n = 4; R = K-Ahx-)” here?
**A.** The cleaved bond was “K-Ahx, major, 8 hours”.

**Q.** Which helicity (circular dichroism) does the source give for CC(=O)N[C@@H](CO)C(=O)N[C@@H](Cc1c[nH]c2ccccc12)C(=O)N[C@@H](CCCNC(=N)N)C(=O)N[C@@H](CCC(N)=O)C(=O)N[C@@H](C)C(=O)N[C@H]1Cc2cn(nn2)CCC[C@@H](C(=O)N[C@@H](Cc2ccc(O)cc2)C(N)=O)NC(=O)[C@H](CC(=O)O)NC(=O)[C@H](C(C)C)NC(=O)[C@H](Cc2ccccc2)NC1=O (Ac-SWRQA[Pra]FVD[Orn(N3)]Y-NH2; triazole 6-10) here?
**A.** Its helicity is 17%.

**Q.** With CC(=O)N[C@@H](CO)C(=O)N[C@@H](Cc1c[nH]c2ccccc12)C(=O)N[C@@H](CCCNC(=N)N)C(=O)N[C@@H](CCC(N)=O)C(=O)N[C@@H](C)C(=O)N[C@@H]1Cc2cn(nn2)CCCC[C@@H](C(=O)N[C@@H](Cc2ccc(O)cc2)C(N)=O)NC(=O)[C@H](CC(=O)O)NC(=O)[C@H](C(C)C)NC(=O)[C@H](Cc2ccccc2)NC1=O as the molecule, how does the helicity (circular dichroism) read?
**A.** Its helicity is 7%.

**Q.** Which cleaved bond (human plasma; up to 24 h) does the source give for Ac-SWRQA*FVD*Y-NH2 here?
**A.** Its cleaved bond is “R-Q, major; also recorded: A-*, major”.

**Q.** Which helicity (circular dichroism) does the source give for CC(=O)N[C@@H](CO)C(=O)N[C@@H](Cc1c[nH]c2ccccc12)C(=O)N[C@@H](CCCNC(=N)N)C(=O)N[C@@H](CCC(N)=O)C(=O)N[C@@H](C)C(=O)N[C@@H](C)C(=O)N[C@H]1Cc2cn(nn2)CCC[C@@H](C(N)=O)NC(=O)[C@H](CO)NC(=O)[C@H](CC(=O)O)NC(=O)[C@H](C(C)C)NC1=O (Ac-SWRQAA[Pra]VDS[Orn(N3)]-NH2; triazole 7-11) here?
**A.** The helicity was 6%.

**Q.** Which cleaved bond (human plasma; cited from earlier work) does the source give for WRQAAFVDSY here?
**A.** Its cleaved bond is “Trp74-Arg75; also recorded: Ala78-Phe79”.
